These results are taken from US6946255 (KO OKUMURA, dated 2005).

First the molecules themselves.
B1: soluble human Fas ligand molecule (ligand, UniProt P48023 130-281, looked up)
chain: QIGHPSPPPEKKELRKVAHLTGKSNSRSMPLEWEDTYGIVLLSGVKYKKGGLVINETGLYFVYSKVYFRGQSCNNLPLSHKVYMRNSKYPQDLVMMEGKMMSYCTTGQMWARSSYLGAVFNLTSADHLYVNVSELSLVNFEESQTFFGLYKL
B2: monoclonal antibody NOK1 (produced by Hybridoma NOK1, FERM BP-5044) (antibody, V domains shown)
VH: VQLQESGPELVKPGASVKISCKASGYAFSSSWMNWVKQRPGKGLEWIGRIYPGDGDTNDNGKFKGKATLTADKSSSTAYMQLSSLTSEDSAVYFCARSYYYDGSPWFTYWGQGTTVTVSS
VL: DIQMTQSPSSLSASLGDRVTISCRASQDISNYLNWYQQKPDGTVKLLIYYTSRLHSGVPSRFSGSGSGTDYSLTISNLEPEDIATYFCQQYSEFPWTFGGGTKLEIKR
notes: Used as hybridoma culture supernatant, as antibody purified from ascites, biotin-labelled, or coupled to Sepharose beads; also called NOK1 antibody; biotinized monoclonal antibody NOK1
B3: monoclonal antibody NOK5 (produced by Hybridoma NOK5, FERM BP-5048) (antibody, V domains shown)
VH: VQLQESGAEPAKPGASVKMSCKASGYTFTTYWMHWVKQRPGQGLEWIGYINPSSGYTEYNQKFKDKATLTADKSSSTAYMQLISLTSEDSAVYYCARRGNYYYFDYWGQGTTVTVSS
VL: DVLMTQTPKFLPVSAGDRVTMTCKASQSVGNNVAWYQQKPGQSPKLLIYYTSNRYTGVPDRFTGSGSGTDFTFTISSVQVEDLAVYFCQQHYSSPYTFGSGTKLE
B4: monoclonal antibody NOK2 (produced by Hybridoma NOK2, FERM BP-5045) (antibody, V domains shown)
VH: VQLQQSGAELVRPGTSVKMSCKAAGYTFTNYWIGWVKQRPGHGLEWIGYLYPGGLYTNYNEKFKGKATLTADTSSSTAYMQLSSLTSEDSAIYYCARYRDYDYAMDYWGQGTTVTVSS
VL: DVLMTQTPLSLPVNIGDQASISCKSTKSLLNSDGFTYLGWCLQKPGQSPQLLIYLVSNRFSGVPDRFSGSGSGTDFTLKISRVEAEDLGVYYCFQSNYLPLTFGSGTKLEIKR
notes: also called NOK2 antibody
B5: monoclonal antibody NOK3 (produced by Hybridoma NOK3, FERM BP-5046) (antibody, V domains shown)
VH: VKLQESGPELVKPGASVKISCKASGYAFSSSWMNWVKQRPGKGLEWIGRIYPVNGDTNYNGKFKGKATLTADKSSSTAYMQLSSLTSEDSAVYFCATDGYWYFDVWGQGTTVTVSS
VL: NIVMTQSPKSMSMSVGERVTLSCKASENVDIYVSWYQQKPEQSPKLLIYGTSNRYTGVPDRFTGSGSATDFTLTISNVQAEDLSDYYCVQSYSYPWTFGGGTKLEIKR
notes: also called NOK3 antibody
B6: monoclonal antibody NOK4 (produced by Hybridoma NOK4, FERM BP-5047) (antibody, V domains shown)
VH: VQLQESGPGLVKPSQSLSLTCSVTGYSITSGYYWNWIRQFPGNKLEWMGYISYDGSNNYNPSLKNRISITRDTSKNQFFLKLNSVTTEDTATYYCAVYYYDGSSFDYWGQGTTVTVSS
VL: DIVLTQSPASLAVSLRQRATISCRASEGVDSYGISFMHWYQQKPGQPPKLLIYRASYLKSGVPARFSGSGSRTDFTLTIDPVEADDAATYYCQQNNEDPWTFGGGTKLEIKR

The target in assay [1] is T1, human Fas expressed on WR19L cells (human, UniProt P25445 26-335).
T1 sequence (looked up): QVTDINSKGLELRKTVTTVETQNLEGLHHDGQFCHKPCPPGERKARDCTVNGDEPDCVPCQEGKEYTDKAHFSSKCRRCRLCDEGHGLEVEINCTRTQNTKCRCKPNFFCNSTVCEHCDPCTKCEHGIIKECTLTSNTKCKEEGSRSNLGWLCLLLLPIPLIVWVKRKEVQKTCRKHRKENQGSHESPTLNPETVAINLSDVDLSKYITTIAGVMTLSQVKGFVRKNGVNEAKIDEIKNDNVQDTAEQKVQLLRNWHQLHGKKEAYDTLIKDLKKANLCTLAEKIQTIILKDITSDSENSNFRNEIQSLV
Description: cell-based or functional assay.

For assay [2], the target named is B1. Description: cell-based or functional assay.
Assay [3] deals with T2, monkey Fas ligand on activated rhesus monkey peripheral blood mononuclear cell surfaces (rhesus monkey, UniProt P63307 1-280).
T2 construct: whole, on cells; also called Fas ligand on monkey cell surfaces
T2 sequence (looked up): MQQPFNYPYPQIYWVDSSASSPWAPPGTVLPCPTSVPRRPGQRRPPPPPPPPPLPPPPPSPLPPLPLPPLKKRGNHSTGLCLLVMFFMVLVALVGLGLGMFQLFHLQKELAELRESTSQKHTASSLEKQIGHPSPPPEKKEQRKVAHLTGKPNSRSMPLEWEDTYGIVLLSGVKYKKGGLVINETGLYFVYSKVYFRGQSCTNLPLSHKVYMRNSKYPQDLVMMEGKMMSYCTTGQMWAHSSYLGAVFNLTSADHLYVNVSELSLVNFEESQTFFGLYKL
Nature of the assay: flow cytometry (FACScan) on activated rhesus monkey PBMC, 1 µg antibody, PE-anti-mouse Ig's. The method, then:
Five milliliters of peripheral blood were collected from a rhesus monkey using a heparinized syringe. After the blood was diluted to ½ with PBS, its lymphocyte fraction was recovered by the specific gravity centrifugation using Separate L. These monkey peripheral blood mononuclear lymphocytes were cultured for 2 days in a 10% FCS•RPMI 1640 medium containing 10 μg/ml of Con A to activate them. Thereafter, the cells were recovered by centrifugation, and then cultured further for a week in a 10% FCS•RPMI 1640 medium containing 50 units/ml of human IL-2 (interleukin-2). After a week, PMA and ionomycin were added to give concentrations of 10 ng/ml and 500 ng/ml, respectively, to activate the cells further for 4 hours. At this time, BB94 (matrix protease inhibitor) was added in a proportion of 10 μM at the same time. The Fas ligand was expressed in a large amount on the lymphocytes by these activation processes. After 4 hours, the cell were collected to analyze them by flow cytometry. After collecting the cells, the number of cells was first counted to adjust the cells to 1 ×10^6 cells/ml with PBS. Thereafter, the cells were placed in portions of 1 ml into tubes (Farcon No-2008), and 100 μl of control PBS, 1 μg of NOK1 antibody (100 μl of one diluted to a concentration of 10 μg/ml with PBS), 1 μg of monoclonal antibody NOK2 (similarly, 100 μl at a concentration of 10 μg/ml) and 1 μg of monoclonal antibody NOK3 (similarly, 100 μl at a concentration of […]) were separately placed in the tubes, thereby conducting a reaction for 30 minutes on an ice bath.
After the respective cultures were centrifugally washed twice with PBS. 1 µl of PE-anti-mouse Ig's were placed in the tubes to conduct a reaction further for 30 minutes on the ice bath. After the cultures were washed with PBS and separately suspended in 200 µl of PBS, they were analyzed by FACScan.
A general note: A flow cytometer gives signals particle by particle.

Assay [4] has as its target T3, 10-mer peptide consisting of residues 5 to 14 of SEQ ID NO: 31 (immobilized on the tip of a Pepset pin).
T3 construct: One of 44 overlapping 10-mer peptides of the extracellular domain of the Fas ligand
T3 peptide: VYMRNSKYPQ
Nature of the assay: Pepset pin ELISA, HRP-labeled anti-mouse IgG. The procedure: (§1) ⑨ After the pin of the Pepset was taken out of the well of the plate, 2N H_2SO_4 was added in an amount of 50 μl to each well to stop the reaction.
On the technique in general: ELISA stands for enzyme-linked immunosorbent assay.

The target of assay [5] is T4, 10-mer peptide consisting of residues 1 to 10 of SEQ ID NO: 31 (immobilized on the tip of a Pepset pin).
T4 construct: One of 44 overlapping 10-mer peptides of the extracellular domain of the Fas ligand
T4 peptide: LSHKVYMRNS
Description: Pepset pin ELISA, HRP-labeled anti-mouse IgG. The procedure:
as §1

As for B1, in assay [1], the Survival rate came out at 3.5%.

B2 returned a Survival rate in assay [2] of 99.3%. Also, the binding result in assay [3] is recorded as “binds”.

Molecule B3 registered a Survival rate in assay [2] of 98.2%.

Turning to B4, in assay [2], the Survival rate was determined as 105%. Further, the binding result in assay [4], in assay [5] and in assay [3] was “binds” each time.

In assay [2], B5 yielded a Survival rate of 101%. For the same molecule, the binding result in assay [3] is reported as “binds”.

As to B6, the Survival rate in assay [2] was found to be 110%.
